From the nanobody polyreactivity screen of Harvey et al. (2022)

Experiment: yeast display, Sf9 membrane polyspecificity reagent, FACS + sequencing; frameworks hold sequencing errors
Outline: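 Polyreactivity labels are assigned by the sorting gate from which each nanobody was recovered. The gates were low and high (top ~1%), set on anti-HA fluorescence for expression and streptavidin fluorescence for reagent binding. Before sorting, galactose-induced (36–48 hours) yeast display cells were stained for 1 hour at 4 °C with 10% biotinylated, detergent-solubilized Sf9 membrane reagent.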

QVQLVESGGGLVQAGGSLRLTCAASGHIFFYYTMGWYRQAPGKERELVARISSDGDTYYADSVKGRFTISRDNAKNTVYLQMNSLKPEDTAVYYCAAAVLYWVGYGYWGQGTQVTVSS
polyreactivity (PSR sort gate): low polyreactivity

QVQLVESGGGLVQAGGSLRLTCAASGIIFGENARGWYRQAPGKERELVDAINSVGSTYYADSVKGRFTISRDNAKNTVYLQMNSLKPEDTAVYYCAAESWFLRWYRYDYWGQGTQVTVSS
polyreactivity (PSR sort gate): low polyreactivity

QVQLVESGGGLVQAGGSLRLTCAASGIIFGKYTMGWYRPAPGKERELVADISKRGGSTYYADSVKGRFTISRDHAKNTVYLQMNSLKPEDTAVYNCAAERISSYDYWGQGTQVTVSS
polyreactivity (PSR sort gate): high polyreactivity

QVQLVESGGGLVQAGGSLRLTCAASGIIFYGYAMGCYRQAPGKERELVADISFSGGRTYYSDSVKGRFTISRDNAKNTVYLQMNRLKQEDTAVYYCAKRRFYRTSQYVKYDYWGQGTQVTVSS
polyreactivity (PSR sort gate): low polyreactivity

QVQLVESGGGLVQAGGSLRLTCAASGITFKFYAMGWYRQAPGKESELVAAITSGGGSTYYADSVKGRFTISRDNAKNTVYLQMNILKPEDTAVYYCNTYSIAYYSPCYDYWGQGTQVNVSS
polyreactivity (PSR sort gate): high polyreactivity

QVQLVESGGGLVQAGGSLRLTCAASGITFYGNAMGWYRQAPGKERELVANTYYADSVKGRFTISRDNAKNTVYLQMNSLIAEDTAVYYCATRNARYRSQPPGYDYWGQGTQVTVSS
polyreactivity (PSR sort gate): low polyreactivity

QVQLVESGGGLVQAGGSLRLTCAASGLIFPRYAMGWYRQAPGKERELVAAISRRGGSTRYADSVKGRFTISRDNAKNTVYLQMNSLKPEDTAVYYCAAPDFPKYYPTAYLQADEYWGQGTQVTVSS
polyreactivity (PSR sort gate): high polyreactivity

QVQLVESGGGLVQAGGSLRLTCAASGLIFVAYAMGWYRQAPGKERELVAAISWSGGDTYYADSVKGRFTISRDNAKNTVYLQMNSLKPEDTAVYYCAADYYPYGYDSWGQGTQVTVSS
polyreactivity (PSR sort gate): low polyreactivity

QVQLVESGGGLVQAGGSLRLTCAASGLILVPNTMGWYRQAPGTERELVAAISYSGGGTYYADSVKGRFTISRDNAKNTVYLQMNSLKPEDTAVYYCAAYVKRESAPYGYWGQGTQVTVSS
polyreactivity (PSR sort gate): low polyreactivity

QVQLVESGGGLVQAGGSLRLTCAASGLTFERYAMGWYRQAPGKETELVAAISIRGGSTYYADSVKGRFTISRYNAKNTVYLQMNSLKPEVTAVYYCSADGRGREYDYWGQGTQVTVSS
polyreactivity (PSR sort gate): low polyreactivity

QVQLVESGGGLVQAGGSLRLTCAASGLTFYSNTMGWYIQAPGKERELVAAISWTGTSTYYADSVKVRFTISRDNAKNTVFLQMNSLKAEDTAVYYWNALGYARSYDSWGQGTQVTVSS
polyreactivity (PSR sort gate): high polyreactivity

QVQLVESGGGLVQAGGSLRLTCAASGNIFGIYTMGWYRQAPGKEREFFAVISLSGTSTYYADSVKGRFTISRDNAKNTVYLQMKSLKPEDTAVYYCNARTPHNKGRRRAYDYWGQATQVTVSS
polyreactivity (PSR sort gate): high polyreactivity

QVQLVESGGGLVQAGGSLRLTCAASGNTFFFNTMGWYRQAPGKERELVAVISSSGGTYYADSVKGRFTISRDNAKNTVYLQMNSLKQEDTAVYYCNADWHTHGYPTGKTGFKYYYWGQGTQVTVSS
polyreactivity (PSR sort gate): low polyreactivity

QVQLVESGGGLVQAGGSLRLTCAASGNTFVGNAMGWYRQAPGKERELVAAISRRGGSTYYADSVKGRFTISRDYAKNTVYLQMNSLKPEDTAEYYCAVGWAGRYDYWGQGTQVTVSS
polyreactivity (PSR sort gate): low polyreactivity

QVQLVESGGGLVQAGGSLRLTCAASGRIAWYRQAPGKERELVAAITSGDRTNYADSVKRRFTISRDNAKNTVYFQMNSLKPEDTAVYYCATEPSWYHGFIDPRGYWGQGTQVTVSS
polyreactivity (PSR sort gate): low polyreactivity

QVQLVESGGGLVQAGGSLRLTCAASGRICSNYAMGWYRPARGKERELLAAITVIGGRTYYADSVKGRFTISRDNPKNTVYLHMNSPKPEDTAVYYCAATPRRPWFYGSDYWGQGTQVTVSS
polyreactivity (PSR sort gate): high polyreactivity

QVQLVESGGGLVQAGGSLRLTCAASGRIFDGYAMGWYRQPPRKERELVAAISSRGGRTYYADSVKGRFTISRDNAKNTVYLQMNSLKPEDTAVYYCAADDPYGEGDYWGQGTQVTVSS
polyreactivity (PSR sort gate): low polyreactivity

QVQLVESGGGLVQAGGSLRLTCAASGRIFGPYVLGWYRQAPGKERELVAAISTSGTSTYYADSVKGRFTISRDNAKNTVYLQMNSLKPEDTAVYYCAKRSGARHRLMDYWGQGTQVTVSS
polyreactivity (PSR sort gate): low polyreactivity

QVQLVESGGGLVQAGGSLRLTCAASGRIFGSYAMGWYRQAPGKERELVAAITRRGGSTYYADSVKGRFTISRDNAKNTVYLQMNSLKPEDTAVYYCAPERTSAYDYWGQGTQVTVSS
polyreactivity (PSR sort gate): high polyreactivity

QVQLVESGGGLVQAGGSLRLTCAASGRIFLINAMGWYRPAPGKERDLVATISRSGASTDYADSVKGRFTISRDNAKYIVYLQMKSMKPEDTAVYYCNAKVYKRRVVPYDYWGQGSQVTVSS
polyreactivity (PSR sort gate): high polyreactivity

QVQLVESGGGLVQAGGSLRLTCAASGRIFNTYAMGWYRQAPGKERELVAAITRSAGRTYYADSVKGRFTISRDNAKNTVYLQMNSLKPEDTAVYYCNAEGSSVLTGYCGYPPYWDTYDYWGQGTQVTLSS
polyreactivity (PSR sort gate): low polyreactivity

QVQLVESGGGLVQAGGSLRLTCAASGRIFSGYAMGWYRQEPGKEREFVASISTSGARTYYADSVKGRFTISRDNAKNTVYLQMNRLKPEDTAVYYCAKVIRWISYRGWYDYWGQGTQVTVSS
polyreactivity (PSR sort gate): high polyreactivity
